Data published in publication PMC7293038.

How the values were obtained:
Experiment in all cases: BLI; biotinylated Avi-tag-ZIgE-SpyCatcher loaded on streptavidin Octet tips (2.5 ug/ml, 60 s); IgE as analyte in PBST with 30 mg/ml skimmed milk; 300 s association, 400 s dissociation; 1:1 binding model assuming only partial dissociation; mean of three IgE concentrations
[1] = molecular target: Avi-tag-ZIgE^33-SpyCatcher
[2] = molecular target: Avi-tag-ZIgE^44-SpyCatcher
[3] = molecular target: Avi-tag-ZIgE^consensus-SpyCatcher
[4] = molecular target: Avi-tag-ZIgE^wild-type-SpyCatcher

Question: With “IgE (native human monoclonal, Abcam ab65866) (antibody)” as the substance, how does the Kd [1] read?
Answer: The Kd was 2.1 µM.

Question: And the Kd [2]?
Answer: Its Kd is 4.8 µM.

Question: What about the Kd [3] of the same substance?
Answer: The Kd was 0.61 µM.

Question: And the Kd [4]?
Answer: The Kd was 7.3 µM.
